# Reference: the supplement of paper PMC10126150
# ± gives the standard deviation of the averaged measurements.
# Test system: ATP
# Assay: switch fluorescence ratio, 500 uM ATP over buffer (Cy3 cluster intensity, sum of 5 cycles each) (fold (ratio)); higher = stronger signal-on switching upon ATP binding; sequences stand for … in TCGTCGGCAGCGTCAGATGTGTATAAGAGACAGTTTTTTTTTTTTTTTTTTTTTTTTT…TC
# Conditions: aptamer strand: ATP DNA aptamer (quencher-CACCTGGGGGAGTATTGCGGAGGAAGG + anchor), 100 nM annealed; ATP concentration: 500 uM
# Method in brief: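 Five buffer/ATP imaging cycles were run on Cy3-labelled switching-strand clusters on a modified Illumina MiSeq flow-cell, with NaOH stripping and re-annealing between cycles. In each cycle, clusters annealed to 100 nM quencher-labelled ATP aptamer were imaged in selection buffer, then after 15 min with 500 uM ATP at 22 °C. Per cluster, the fluorescence ratio is summed target-cycle over summed buffer-cycle Cy3 intensity, averaged per switch-domain sequence. Only clusters within 100-1000 RFU were kept.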
# 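Also: ATP exposure 15 min at 22 °C before imaging.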
row,Sequence,switch fluorescence ratio
1,TCGCTGTAGG,1.1 ± 0.059
2,GGGGTTTTTA,0.995 ± 0.034
3,TCAATTTAGA,1.03 ± 0.038
4,TAGCGGGCGC,0.986 ± 0.032
5,AAAGGTAGTA,0.9934 ± 0.0097
6,GAAATTTTGT,0.994 ± 0.012
7,TTTGTTGATT,0.973 ± 0.022
8,GATTCTCCGT,1.16 ± 0.016
9,TGATTAAGGG,0.9752 ± 0.0072
10,TTACTATATG,1.03 ± 0.018
11,AGGGGGACCC,1 ± 0.058
12,CTAACAATAA,1.05 ± 0.081
13,AAGGGCGTGG,0.982 ± 0.02
14,ATCGGTCTGT,0.975 ± 0.018
15,CGGTCACGCG,0.972 ± 0.039
16,AAATGAGTTA,0.99 ± 0.019
17,TGTTAGGATT,0.997 ± 0.014
18,CATTGTGGGC,0.9621 ± 0.0034
19,CCTAGTACCG,0.992 ± 0.069
20,CGTTTATCTG,0.972 ± 0.025
21,AAGGGCTTTT,1.01 ± 0.036
22,GTCAGGTCTT,0.975 ± 0.021
23,CGGGGATTTT,1.01 ± 0.051
24,TTTCTCAGTA,1.03 ± 0.041
25,CGGAGGGGTC,1.02 ± 0.02

row,Sequence,switch fluorescence ratio
1,GGGATATCAG,0.994 ± 0.017
2,AACGGGTACC,1.09 ± 0.088
3,CAGTGGTCGG,1 ± 0.038
4,CGGTATTTGC,0.979 ± 0.0099
5,TGATATTTTT,0.998 ± 0.028
6,TAGTAAGTTT,0.998 ± 0.012
7,ATTTAAGTGT,1 ± 0.021
8,TGATATTGAG,1 ± 0.045
9,AATATAGGT,1.02 ± 0.033
10,TGTCTCCCTT,1.007 ± 0.0074
11,GTGTGGATCA,0.9867 ± 0.0093
12,CTTTTTATTT,1.14 ± 0.22
13,GATAATTATG,0.98 ± 0.019
14,CATTATATCG,1 ± 0.023
15,TTAAGTTGTG,0.9827 ± 0.0013
16,AGGTGTACTG,1.03 ± 0.058
17,TAAATCGGTG,0.977 ± 0.039
18,ACGGTGTATT,0.998 ± 0.037
19,ATTACATTTT,1.03 ± 0.031
20,TGGGGAGGAT,0.974 ± 0.023
21,ATGGGTTTGG,1.01 ± 0.036
22,GGTGTGTGGT,1.002 ± 0.0029
23,ACGCGGCAGG,1.02 ± 0.022
24,GTTGTAAGTT,0.978 ± 0.0098
25,CGGGAAGTGG,0.996 ± 0.03

row,Sequence,switch fluorescence ratio
1,ACGTTTGTAT,1 ± 0.031
2,GATTTGCCGG,0.995 ± 0.013
3,CTTGCACCC,1.07 ± 0.024
4,TGCTGTACGA,1.11 ± 0.012
5,GTGGTTGGAG,0.9865 ± 0.0072
6,CCTATGATTG,0.981 ± 0.023
7,CCTGGCTGAT,1.11 ± 0.058
8,GTCGTAAAAA,1.61 ± 0.0016
9,ACGTGTGGGA,1.04 ± 0.02
10,GGGCGGGCGC,1.06 ± 0.027
11,GTTGTGGGTA,0.975 ± 0.034
12,TCGGCGACAT,1.005 ± 0.0072
13,TATAAAACGG,1.14 ± 0.045
14,GGCGTGTCGC,0.9852 ± 0.0037
15,TGCACTGTTT,1.01 ± 0.038
16,CGGAGCCAGG,1.43 ± 0.02
17,CGTTCTATTG,1.02 ± 0.086
18,GGGAGAAGGT,0.967 ± 0.011
19,CGGTTTTGTT,1.02 ± 0.035
20,GCGCTAGATG,1.008 ± 0.0093
21,TTTAAAATGG,0.9998 ± 0.0073
22,GGAGAGTGGT,1.02 ± 0.023
23,TCATCAATAT,1.09 ± 0.067
24,GCAGAGGGGG,1.04 ± 0.029
25,CCCGGTTTTA,1.06 ± 0.12

row,Sequence,switch fluorescence ratio
1,ATCACAGGTT,1.07 ± 0.0082
2,TATCGGGGGT,1.02 ± 0.039
3,TGATGGTGTC,0.968 ± 0.011
4,ATTGTTACTG,1.06 ± 0.021
5,GGGGGAATAG,1.05 ± 0.046
6,TAGGATGTAT,0.9864 ± 0.0088
7,ACGAGTAGCT,1.01 ± 0.014
8,TTGTATTT,0.979 ± 0.022
9,ACTAGGCCGA,1.01 ± 0.044
10,TCGAGATAGC,1.03 ± 0.011
11,ATTGGGAATC,0.9923 ± 0.0027
12,CAGGGGGTAC,1.09 ± 0.086
13,AGTCGAAAGC,1.01 ± 0.059
14,TTGCAATTTT,1.36 ± 0.46
15,CGAATGTTGG,0.99 ± 0.041
16,CGTATAGGAT,1.01 ± 0.036
17,TTTTTACCAT,1.04 ± 0.022
18,TGGGGGGAAT,1.03 ± 0.1
19,TGGAAGGTTG,0.9808 ± 0.0066
20,TGGGTTTAAT,1.03 ± 0.018
21,GAAGGAACGT,0.981 ± 0.043
22,GGCGGGGTTG,0.996 ± 0.019
23,GGCAGGGTTT,0.99 ± 0.037
24,AGAAGTTGGA,1 ± 0.05
25,TGGGCCGGTA,1.02 ± 0.031

row,Sequence,switch fluorescence ratio
1,TAAAATAAAT,1.016 ± 0.0018
2,GGTATGCTCT,0.998 ± 0.065
3,GAAAGGGGTC,1.01 ± 0.074
4,AAAATTATTG,1 ± 0.022
5,TCAAATAGGA,1.01 ± 0.012
6,GGATAATGCT,0.9597 ± 0.0094
7,GGATATGTGG,0.99 ± 0.025
8,GCTGCATGTA,1.02 ± 0.028
9,TGTACTTTGG,1.01 ± 0.022
10,ATAGTATCTT,1 ± 0.021
11,TGGAAGAGGC,1.47 ± 0.64
12,ATATAAGTAG,1.03 ± 0.014
13,ATTGTGGGCT,0.967 ± 0.063
14,GGTGGGAGAC,1.01 ± 0.03
15,TGATCGGGTA,1 ± 0.011
16,AATTTGTAGG,1 ± 0.02
17,GCAATGAACC,1.84 ± 0.078
18,CCTAGCGGTG,1.12 ± 0.03
19,GAGTTTCAGT,1.04 ± 0.073
20,GATAATGCGG,1.01 ± 0.025
21,TTTGTGACTA,1.01 ± 0.049
22,TGGACGTGTC,1 ± 0.019
23,CCTTTCGTGT,1.19 ± 0.22
24,TTGGTCGGTC,0.985 ± 0.036
25,TTAAAAAACG,1.04 ± 0.052

row,Sequence,switch fluorescence ratio
1,GAGTCATTAA,0.96 ± 0.041
2,AAGTACAGCG,1.03 ± 0.026
3,GAGAGTTGGT,1.007 ± 0.0073
4,TTTTTCGTCT,1.02 ± 0.028
5,GGGGGTTCCG,0.98 ± 0.021
6,CGTTTCATCT,0.987 ± 0.065
7,CCTAGGAGCC,1.05 ± 0.026
8,GGAGGGGTTT,1.01 ± 0.04
9,AAAATGCCAC,1.04 ± 0.024
10,AAGGAATGGT,1.05 ± 0.041
11,ACCGGTCTAT,1.031 ± 0.00046
12,CATGCTTGGT,1.013 ± 0.00025
13,AAGAATATGC,0.978 ± 0.027
14,AGCGTTAGAG,1.09 ± 0.017
15,GAAAGAGTTC,0.99729 ± 0.00094
16,ACTGCTGTTT,0.9834 ± 0.0026
17,TCGTATCATT,0.976 ± 0.02
18,AGGCGACATT,0.9819 ± 0.0056
19,GGCTCCGGGG,1.03 ± 0.024
20,TTTTTTTGC,1 ± 0.02
21,TTTTTTGAGC,0.996 ± 0.031
22,TAGAAACGCG,0.983 ± 0.025
23,TGTTAAAATC,0.984 ± 0.058
24,CACTAGAGGA,1.022 ± 0.0057
25,TGAAAATTTT,0.99 ± 0.029

row,Sequence,switch fluorescence ratio
1,GGGTTCAAGG,0.995 ± 0.048
2,CGGCAAGAGT,1.479 ± 0.0019
3,GGTTGCATCG,0.986 ± 0.012
4,AGATTATAGC,1.02 ± 0.045
5,CTAAGTTTGG,1.018 ± 0.0037
6,GGCTCATAGT,0.996 ± 0.017
7,AAAAAATTAA,1.04 ± 0.026
8,TTTTGGTTGC,1.02 ± 0.032
9,TTTATAACCA,1.05 ± 0.024
10,GAGGGATTGG,1.05 ± 0.12
11,AACGTGTTGT,1.02 ± 0.077
12,AGGTTAAAA,1.03 ± 0.075
13,TTTGGCGCGA,1.43 ± 0.58
14,GAGAAACCGG,1.03 ± 0.019
15,CCTGAGGGCG,1.037 ± 0.01
16,AAGGTGTAGC,0.9839 ± 0.0091
17,GGATCTGGTG,1.022 ± 0.0079
18,GGTAGTTTTC,0.9916 ± 0.0039
19,GATATGTTGA,1 ± 0.023
20,TTATTTGAAT,1.011 ± 0.0027
21,CGAGTAAAAT,1.08 ± 0.1
22,AGTGGCCGTC,0.974 ± 0.051
23,ATAGGAAATC,2.74 ± 0.75
24,TTCCGGAAAA,1.01 ± 0.05
25,TCACAATGCT,1.55 ± 0.016

row,Sequence,switch fluorescence ratio
1,TAAGGGGGTC,0.981 ± 0.012
2,CCAGGTTAAT,1.036 ± 0.0033
3,ATTGGTAAGG,0.995 ± 0.025
4,GTTAGTCGGT,0.983 ± 0.032
5,GTGTTTACTG,1.01 ± 0.054
6,GTGAAGTATG,1.016 ± 0.00074
7,GAATTTGCGC,1.03 ± 0.084
8,GGGTTTCGTG,0.993 ± 0.015
9,GAGAGCTTGT,0.956 ± 0.027
10,TGAGTTGGGA,1.002 ± 0.0057
11,TTATTGAAA,1.023 ± 0.0033
12,GAGTAATGCG,0.943 ± 0.066
13,CAGAATTGTG,1.02 ± 0.012
14,TCGGCGTCTT,0.977 ± 0.04
15,CCTGGGGGAA,1.025 ± 0.0073
16,TGAGGTGTTG,1.01 ± 0.063
17,TGGTGTGGAA,0.9806 ± 0.0027
18,CGTTCAATGT,1.026 ± 0.0085
19,AGAGGGGCCA,1.01 ± 0.048
20,GTGGCTGAGG,1.004 ± 0.0082
21,GTGTGTTTTT,0.975 ± 0.053
22,GATTTGGGGA,0.988 ± 0.028
23,GCTAGTAAAA,1.02 ± 0.029
24,ACGCGCGCGC,0.987 ± 0.036
25,TTTCATACCT,1.23 ± 0.14
